Experimental findings from US20190100518A1 (priority 2016, published 2019) are described below.

One data set has as its target T1, lysozyme (Gallus gallus, UniProt P00698).
T1 construct: purchased Sigma-Aldrich L-4919
The data set can be described thus: circular dichroism (CD) spectrum, higher-order structure of lysozyme. It counts as physicochemical. Particulars: 25° C. The procedure:
A keto-ABNO-lysozyme conjugate prepared by the same method as in Example 6 was dissolved in water, and the concentration was adjusted to 20 μM to provide an aqueous solution for a test group. On the other hand, lysozyme alone was dissolved in water, and the concentration was adjusted to 20 μM to provide an aqueous solution for a control group.
Using a circular dichroism (CD) dispersion meter Model 202SF (manufactured by AVIV Biomedical, Inc.), the CD spectrum of the aqueous solution in each of the test group and the control group was measured under the following conditions to perform analysis of the higher-order structure of the lysozyme in each aqueous solution.
On the other hand, control group A was prepared in the same manner as in the method described in Example 6 except that the same amount of water was added instead of the aqueous NaNO2 solution. As control group B, lysozyme alone (20 μM) was used. As control group C, a phenylmaleimide-lysozyme conjugate prepared by the method described in Example 15 was used.
Using a circular dichroism (CD) dispersion meter Model 202SF (manufactured by AVIV Biomedical, Inc.), the CD spectrum was measured for each of the test group and the control groups under the following conditions.
For orientation: CD spectra are sensitive to the conformation of chiral molecules.

The format of data set [1] is physicochemical.
The mark [2] stands for this setting: Example 16: 200 to 250 nm, compared with control groups A and B, FIG. 7.

T1 sequence (P00698 19-147): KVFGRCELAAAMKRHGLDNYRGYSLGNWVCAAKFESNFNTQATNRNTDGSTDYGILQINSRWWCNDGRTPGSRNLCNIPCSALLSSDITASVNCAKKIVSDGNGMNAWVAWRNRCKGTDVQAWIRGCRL

Regarding “phenylmaleimide-lysozyme conjugate: lysozyme bound to phenylmaleimide through a cysteine residue, cysteine modification method comparison [reference compound]”, the “higher-order structure of lysozyme (waveform of the CD spectrum)” value with lysozyme (setting [2]) is “has changed”.

Turning to “keto-ABNO-lysozyme conjugate: lysozyme bound to keto-ABNO at a tryptophan residue, prepared in water with NaNO2 and AcOH”, the “higher-order structure of lysozyme (waveform of the CD spectrum)” value is given as “not influenced” in the data set with lysozyme (Example 14: 20 μM in water, 200 to 250 nm, compared with lysozyme alone, FIG. 5) and “maintained” with lysozyme (setting [2]).

Turning to `[O]N1C2CCCC1CC(=O)C2` [keto-ABNO, keto-azabicyclo[3.3.1]nonane N-oxyl], the solubility in water result in data set [1] is given as “dissolve in water”.
